Measured values taken from patent US5695963.

Key:
EPAS1 (Homo sapiens) = EPAS1 (Homo sapiens) (UniProt Q99814); assay: cell_activity; conditions: 293 cells, endogenous ARNT
[1] = test system: EPAS1/ARNT heterodimer (cotransfected) (Homo sapiens (EPAS1) / Mus musculus? (ARNT)); assay: cell_activity; conditions: ARNT-deficient c4 cells; EPAS1 alone 1.8-fold; Hepa1c1c7 with EPAS1 9-fold
[2] = molecular target: HIF-1alpha (Homo sapiens) (UniProt Q16665); assay: cell_activity; conditions: 293 cells, larger amounts of plasmid
[3] = molecular target: mouse aryl hydrocarbon receptor nuclear transport protein (ARNT) (mouse) (UniProt P53762)

Sequence of HIF-1alpha (Homo sapiens) (Q16665 whole entry): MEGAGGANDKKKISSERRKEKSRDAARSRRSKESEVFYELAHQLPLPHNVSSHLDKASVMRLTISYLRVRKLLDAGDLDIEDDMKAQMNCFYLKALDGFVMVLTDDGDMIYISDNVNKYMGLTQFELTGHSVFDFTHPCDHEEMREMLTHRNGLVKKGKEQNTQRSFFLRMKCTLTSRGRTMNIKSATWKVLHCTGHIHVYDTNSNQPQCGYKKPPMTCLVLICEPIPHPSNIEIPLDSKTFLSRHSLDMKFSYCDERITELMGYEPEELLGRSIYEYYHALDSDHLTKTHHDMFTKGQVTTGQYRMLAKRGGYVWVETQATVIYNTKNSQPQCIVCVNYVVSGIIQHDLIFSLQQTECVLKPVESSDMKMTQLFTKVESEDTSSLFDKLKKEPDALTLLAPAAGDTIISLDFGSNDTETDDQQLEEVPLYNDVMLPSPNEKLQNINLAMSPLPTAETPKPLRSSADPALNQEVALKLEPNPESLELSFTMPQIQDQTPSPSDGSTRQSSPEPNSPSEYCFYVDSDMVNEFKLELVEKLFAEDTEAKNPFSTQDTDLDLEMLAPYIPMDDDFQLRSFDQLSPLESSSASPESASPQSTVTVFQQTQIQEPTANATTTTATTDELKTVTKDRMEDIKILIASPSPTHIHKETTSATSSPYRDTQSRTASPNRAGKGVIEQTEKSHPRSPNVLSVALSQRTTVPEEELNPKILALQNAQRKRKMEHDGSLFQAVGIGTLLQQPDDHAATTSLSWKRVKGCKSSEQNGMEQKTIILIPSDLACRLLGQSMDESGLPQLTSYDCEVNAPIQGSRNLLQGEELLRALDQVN
Sequence of EPAS1 (Homo sapiens) (Q99814 whole entry A60E): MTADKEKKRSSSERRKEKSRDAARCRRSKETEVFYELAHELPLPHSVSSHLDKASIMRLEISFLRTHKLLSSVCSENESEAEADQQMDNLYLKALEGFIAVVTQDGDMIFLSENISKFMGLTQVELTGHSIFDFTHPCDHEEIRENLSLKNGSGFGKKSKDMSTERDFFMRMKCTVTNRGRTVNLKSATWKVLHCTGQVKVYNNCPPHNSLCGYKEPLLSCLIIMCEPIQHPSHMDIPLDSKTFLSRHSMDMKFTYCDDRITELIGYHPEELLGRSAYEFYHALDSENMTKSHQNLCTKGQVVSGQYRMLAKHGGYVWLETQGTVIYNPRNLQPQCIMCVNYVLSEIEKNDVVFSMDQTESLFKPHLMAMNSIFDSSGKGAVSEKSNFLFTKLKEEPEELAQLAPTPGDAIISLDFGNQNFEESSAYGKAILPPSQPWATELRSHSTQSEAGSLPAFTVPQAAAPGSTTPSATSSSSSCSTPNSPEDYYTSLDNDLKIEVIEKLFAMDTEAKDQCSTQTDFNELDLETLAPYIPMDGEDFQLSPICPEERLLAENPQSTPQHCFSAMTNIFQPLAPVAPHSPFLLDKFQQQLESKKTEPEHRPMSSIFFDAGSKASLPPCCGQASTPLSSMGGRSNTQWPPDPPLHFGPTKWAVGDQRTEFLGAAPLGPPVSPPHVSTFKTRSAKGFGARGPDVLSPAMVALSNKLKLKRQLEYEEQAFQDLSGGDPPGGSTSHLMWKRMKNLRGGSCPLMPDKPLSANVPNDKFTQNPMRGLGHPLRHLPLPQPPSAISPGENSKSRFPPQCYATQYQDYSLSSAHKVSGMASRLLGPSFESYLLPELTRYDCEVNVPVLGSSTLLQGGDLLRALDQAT

Row | Substance | activity (fold induction) (EPAS1 (Homo sapiens)) | activity (fold induction) [1] | activity (fold induction) [2] | luciferase activity of the pRE-Elb-LUC reporter in ARNT-deficient c4 hepatoma cells [3] [fold]
1 | three copies of 50-nt EPO hypoxia-inducible enhancer in luciferase reporter | 12 | 12 | 7 | 
2 | human EPAS1 protein |  |  |  | 12
